# Test results from patent US9688764B2, “Methods of treating breast cancer by administering anti-human prolactin receptor (PRLR) antibodies” (REGENERON PHARMACEUTICALS, INC., priority 2013, dated 2017).
# B1: VV6A9-5: exemplary anti-IL-6R antibody, see U.S. Pat. No. 7,582,298 (antibody, V domains shown)
# VH: EVQLVESGGGLVQPGRSLRLSCAASGFTFDDYALHWVRQAPGKGLEWVSGVSWNGGRIGYADSVKGRFTISRDNAKNSLFLQMNSLRVEDTALYYCAKGRDAFDIWGQGTLVTVSS
# VL: DIQMTQSPSSVSASVGDRVTITCRASQGISSWLAWYQQKPGKAPKLLIYAASSLQSGVPSRFSGSGSGTDFTLTISSLQPEDFATYYCQHAYSFPYTFGQGTKLEIK
# B2: H1H6765P-DM1: anti-PRLR antibody H1H6765P conjugated to DM1 through an SMCC linker (conjugate)
# VH: EVQLVESGGGVVRPGGSLRLSCVGSGFSFDDHGMNWVRQGPGKGLEWVSGFNWNGGSTNYAESVKGRFTISRDNARNSLFLQMNSLRAEDTALYYCVRGRSGWFNDAFDVWGPGTMVTVSS
# VL: EIVLTQSPGTLSLSPGERATLSCRASQTINSNYLAWYRQKPGQTPRLLIYGTSSRATGIPDRFSGSGSGTDFSLTISRLEPEDFAVFYCQQYAGLPTFGPGTKVDIK
# Columns and labels:
# [1] = target: T1, IL-6R on KG-1, HEK293, HEK293/IL-4R and Ramos cells (Homo sapiens, UniProt P08887); test: FACS relative cell surface expression with anti-IL-6R antibody VV6A9-5; assay type: binding
# T1 construct: KG-1 (IL-4R^+), HEK293/IL-4R and Ramos (IL-6R^+) cells; endogenous in cells; host or cells: Ramos (IL-6R+), KG-1, HEK293, HEK293/IL-4R
# T1 sequence (P08887 20-468): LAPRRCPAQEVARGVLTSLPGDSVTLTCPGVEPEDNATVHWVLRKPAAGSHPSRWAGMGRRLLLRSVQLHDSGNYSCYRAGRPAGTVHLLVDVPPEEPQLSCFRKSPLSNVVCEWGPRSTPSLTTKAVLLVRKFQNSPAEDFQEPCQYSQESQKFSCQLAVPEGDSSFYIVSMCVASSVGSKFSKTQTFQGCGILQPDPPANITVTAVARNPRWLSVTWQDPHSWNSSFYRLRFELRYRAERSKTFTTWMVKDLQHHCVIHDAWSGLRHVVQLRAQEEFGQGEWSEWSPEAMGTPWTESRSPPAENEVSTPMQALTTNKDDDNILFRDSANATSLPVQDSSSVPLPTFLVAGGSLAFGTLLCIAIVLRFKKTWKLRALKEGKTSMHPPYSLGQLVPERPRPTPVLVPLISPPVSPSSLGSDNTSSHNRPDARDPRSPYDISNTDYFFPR
# Description: Cell surface antigen levels on cells that endogenously or recombinantly express IL-4R or IL-6R were first established using FACS. Briefly, approximately 1 million KG-1 (IL-4R^+), HEK293/IL-4R and Ramos (IL-6R^+) cells were incubated with exemplary anti-IL-4R (H4H083P2, see U.S. Pat. No. 7,608,693) and anti-IL-6R (VV6A9-5, see U.S. Pat. No. 7,582,298) antibodies for 30 min on ice. After washing, a PE-conjugated anti-human secondary antibody (10 μg/ml) was added for 30 min followed by a second washing step and subsequent analysis on an Accuri C6 cytometer using FlowJo software (Tree Star, Inc., Ashland, Oreg.). Relative IL-4R and IL-6R cell surface expression levels were calculated as the mean fluorescence intensity (MFI) above isotype control levels.
# PC3/hPRLR cells = test: Cell viability (cell kill) assay; assay type: cell-based, human; settings: PC3/PRLR; Table 11; 3 days
# Outline: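 PC3 and PC3/hPRLR (lipofection-generated, FACS-enriched for PRLR) cells exposed 3 days to anti-PRLR ADCs or free DM1-SMe, 500 nM to 5 pM. Viability by CCK8 OD450, digitonin background subtracted, as % of untreated; IC50 from four-parameter fit of 10-point curves.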
# T47D#11 tumors = test: Tumor growth inhibition in xenograft-bearing mice; assay type: in vivo, CB17 SCID mice
# From the text: (§1) Briefly, 20×10^6 MCF7/PRLR cells (ATCC HTB-22 transfected with full length hPRLR as previously described) were implanted subcutaneously into the left mammary fat pad of female NCr nude mice. In other studies, 10×10^6 PC3/PRLR (ATCC CRL-1435 transfected with full length hPRLR as previously described) were implanted subcutaneously into the left flank of male SCID mice. Additionally, 10×10^6 parental T47D (ATCC HTB-133) or […] T47D#11 cells (ATCC HTB-133 serially passaged in vivo as described below) were subcutaneously implanted into the left flank of female CB17 SCID mice. All mice were obtained from Taconic (Hudson, N.Y.). Each bolus of cells was supplemented with a 90-day estrogen release pellet (1.7 mg/pellet; Innovative Research America, Sarasota Fla.). Once tumors had reached an average volume of 250 mm^3, mice were randomized into groups of seven and dosed with anti-PRLR antibody-drug conjugates of the invention or control reagents. Control reagents included PBS vehicle, free methyl-disulfide DM1 (DM1-SMe) and isotype Control 1-DM1.
# (§2) In multi-dose studies, mice were dosed once a week for a total of three weeks with tumor volumes and body weights being monitored twice weekly throughout the study. Test ADCs were dosed at 5 and/or 15 mg/kg in the multi-dose studies. In single-dose studies, mice received a single dose of test ADC, and tumor volumes and body weights were monitored twice weekly throughout the study. Test ADCs were dosed at 1, 2.5, 5, and 15 mg/kg in the single-dose studies. Average tumor size as well as tumor growth inhibition relative to the vehicle treated group were calculated for each group. Tumors were measured with calipers twice a week until the average size of the vehicle group reached 1000 mm^3. Tumor size was calculated using the formula (length×width^2)/2. Tumor growth inhibition was calculated according to the following formula: (1−((Tfinal−Tinitial)/(Cfinal−Cinitial)))*100, where T (treated group) and C (control group) represent the mean tumor mass on the day the vehicle group reached 1000 mm^3. […] Results are summarized in Tables 21-25 (multi-dose) and Table 26 (single dose). (NT=not tested in the particular experiment shown).
# [2] = Conjugate characterization: protein and linker/payload concentrations, payload loading (UV, MALDI-TOF, SEC-HPLC, RP-HPLC); assay type: physicochemical; settings: Anti-PRLR-SMCC-DM1 conjugates; Table 9
# From the text: Selected anti-PRLR antibodies were conjugated to the maytansinoid DM1 through an SMCC linker using methods similar to those set forth in U.S. Pat. No. 5,208,020 and US Patent Application Publication No. 2010/0129314, the disclosures of which are incorporated by reference herein in their entireties. The conjugates were purified by size exclusion chromatography and sterile filtered. All starting materials and solvents were purchased commercially and used without purification, unless otherwise noted.
# Protein and linker/payload concentrations were determined by UV spectral analysis and MALDI-TOF mass spectrometry. Size-exclusion HPLC established that all conjugates used were >95% monomeric, and RP-HPLC established that there was <0.5% unconjugated linker payload. Yields are reported in Table 8 and 9 based on protein. All conjugated antibodies were analyzed by UV for linker payload loading values according to Hamblett et al, 2004, Clinical Cancer Research 10(20):7063-7070, and by mass difference, native versus conjugated.
# T47D cells = test: Cell viability (cell kill) assay; assay type: cell-based; settings: T47D, Table 12, 3 days
# Outline: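 T47D cells grown overnight, then exposed 3 days to anti-PRLR ADCs (DM1 via non-cleavable SMCC linker, or other maytansinoid toxins) or free DM1-SMe, 500 nM to 5 pM. Viability by CCK8 OD450, digitonin background subtracted, as % of untreated; IC50 from 10-point four-parameter fit. PRL (15 nM) co-incubation tested separately.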
# HEK293 (293) cells = test: Cell viability (cell kill) assay; assay type: cell-based; settings: 293; Table 11; 3 days
# Outline: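 Anti-PRLR–DM1 ADCs (non-cleavable SMCC linker) or free DM1-SMe, 500 nM to 5 pM for 3 days on parental or hPRLR-overexpressing lines. HEK293: CCK8 OD450; MCF7: Hoechst nuclear counts by imaging.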
# PC3 cells = test: Cell viability (cell kill) assay; assay type: cell-based; settings: Table 11, 3 days
# From the text: PRLR-overexpressing cells, including HEK293, PC3, MCF7 and NCI-N87, were generated to assess the ability of anti-PRLR conjugated antibodies to reduce cell viability. For comparative purposes, PC3 and T47D cells with overexpressed ErbB2 were also generated, as well as an MCF7 cell line over-expressing both hPRLR and hErbB2. Briefly, Lipofectamine® 2000-mediated transfection methodology was utilized to generate HEK293 cells expressing human PRLR (HEK293/hPRLR) or human ErbB2 (HEK293/hErbB2). Lipofectamine LTX with Plus Reagent was used to generate PC3 cells expressing human PRLR (PC3/hPRLR) or human ErbB2 (PC3/hErbB2). Lentiviral-mediated transduction was utilized to generate MCF7 cells expressing human PRLR (MCF7/hPRLR), NCI-N87 cells expressing human PRLR (NCI-N87/hPRLR), T47D cells over-expressing human ErbB2 (T47D/hErbB2), and MCF7 cells expressing both human PRLR and human ErbB2 (MCF7/hPRLR/hErbB2). All lines were selected for at least two weeks in complete growth media plus appropriate selection reagents. Stably expressing populations were enriched for PRLR expression via FACS using the anti PRLR antibody Control I.
# Next, the ability of anti-PRLR-DM1 antibody-drug conjugates (i.e., anti-PRLR antibodies conjugated to DM1 via a non-cleavable linker [SMCC]) to reduce cell viability was determined using in vitro cell based assays. Cells were seeded in PDL-coated 96 well plates at 1500 to 10000 cells per well in complete growth media and allowed to grow overnight. For cell viability curves, ADCs or free DM1 (as the methyl disulfide derivative DM1-SMe) were added to the cells at final concentrations ranging from 500 nM to 5 pM and incubated for 3 days. The 293, PC3 and T47D cells were incubated with CCK8 (Dojindo, Rockville, Md.) for the final 1-3 hours and the absorbance at 450 nm (OD450) was determined on a Flexstation3 (Molecular Devices, Sunnyvale, Calif.). MCF7 cells were treated with Hoechst 33342 nuclear stain while being fixed with 4% formaldehyde. Images were acquired on the ImageXpress micro XL (Molecular Devices, Sunnyvale, Calif.) and nuclear counts were determined via Columbus image analysis software (Perkin Elmer, Shelton, Conn.). Background OD450 values (PC3, 293, and T47D) or nuclear counts (MCF7) from digitonin (40 nM) treated cells was subtracted from all wells and viability was expressed as a percentage of the untreated controls. IC50 values were determined from a four-parameter logistic equation over a 10-point response curve (GraphPad Prism).
# Finally, the potency of anti-PRLR antibodies conjugated to DM1 via the non-cleavable linker SMCC was compared to the cell killing potency of anti-PRLR antibodies conjugated to MMAE via the cleavable linker: mc-vc-PAB (available from Concortis, San Diego, Calif.). Cells used in this experiment were PC3, PC3/hPRLR, MCF7/ATCC and MCF7/PRLR.
# [3] = test system: MCF7/hPRLR (MCF7/PRLR) cells; test: Cell viability (cell kill) assay, nuclear counts; assay type: cell-based, human; settings: Table 12, 3 days
# Outline: (§3)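 Anti-PRLR ADCs or free DM1-SMe were added at 500 nM to 5 pM final to cells seeded overnight and were incubated 3 days. MCF7 lines were fixed with 4% formaldehyde plus Hoechst 33342, and nuclei were counted by imaging, with digitonin […] background subtracted. Viability was expressed as % of untreated cells, and IC50 was obtained from a 4-parameter fit of a 10-point curve.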
# MCF7/PRLR tumors = test: Tumor growth inhibition in xenograft-bearing mice; assay type: in vivo, NCr nude mice; settings: MCF7/PRLR tumors TRIAL #2; multi-dose 5 mg/kg; NCr Nude mice; Day 63
# From the text: as §1, §2
# MCF7 (MCF7/ATCC) cells = test: Cell viability (cell kill) assay, nuclear counts; assay type: cell-based; settings: MCF7; Table 12; 3 days
# Outline: as §3
# PC3/PRLR tumors = test: Tumor growth inhibition in xenograft-bearing mice; assay type: in vivo, SCID mice; settings: PC3/PRLR tumors TRIAL #2; multi-dose 5 mg/kg; SCID mice; Day 55
# From the text: as §1, §2
molecule,measurement,setting,value
B1,IL-6R Cell Line Expression Level; Fold Over Background,[1]; HEK293,1
same,IL-6R Cell Line Expression Level; Fold Over Background,[1]; HEK293/IL4R,1
same,IL-6R Cell Line Expression Level; Fold Over Background,[1]; KG-1,7
same,IL-6R Cell Line Expression Level; Fold Over Background,[1]; Ramos,1
B2,% Kill,PC3/hPRLR cells,70%
same,IC50,PC3/hPRLR cells,0.57 nM
same,Average Tumor Growth Inhibition (%),"T47D#11 tumors; T47D#11 tumors, multi-dose 5 mg/kg, SCID mice, Day 66",100%
same,effect on T47D#11 tumor growth,"T47D#11 tumors; multi-dose, 5 and 15 mg/kg",potently inhibited tumor growth
same,Payload:Antibody Molar Ratio (MS),[2],2.3
same,% Kill,T47D cells,78%
same,IC50,T47D cells; read-out: IC50,1.63 nM
same,% Kill,HEK293 (293) cells,86%
same,IC50,HEK293 (293) cells,100 nM
same,% Kill,PC3 cells,70%
same,% Kill,[3],84%
same,IC50,[3],0.18 nM
same,Final Tumor size mm^3 (mean ± SEM),MCF7/PRLR tumors,90 ± 56 mm^3
same,% Kill,MCF7 (MCF7/ATCC) cells,68%
same,IC50,MCF7 (MCF7/ATCC) cells,150 nM
same,Average Tumor Growth Inhibition (%),PC3/PRLR tumors,70%
